Data published in article PMC2802658 (Biochemistry, 2010).
Read-outs that look alike come from different tables or passages of the source. Values belong to the compound of their own block, whether it stands above or below them.

Key:
[1] = target: T1, cation-dependent mannose 6-phosphate receptor (sCD-MPR) (Bos taurus, UniProt P11456, N59Q/N85Q/N96Q/N115Q); experiment: […]-1H HSQC NMR titration; assay type: binding
T1 sequence (P11456 29-182 N59Q/N85Q/N96Q/N115Q): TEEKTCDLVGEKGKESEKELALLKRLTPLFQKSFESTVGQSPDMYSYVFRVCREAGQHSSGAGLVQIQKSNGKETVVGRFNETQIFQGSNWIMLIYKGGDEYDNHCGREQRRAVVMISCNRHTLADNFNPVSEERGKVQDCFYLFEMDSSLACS

[2] = target: β-glucuronidase (Homo sapiens) (UniProt P08236); conditions: cited from earlier work
Chain of β-glucuronidase (Homo sapiens) (P08236 23-651): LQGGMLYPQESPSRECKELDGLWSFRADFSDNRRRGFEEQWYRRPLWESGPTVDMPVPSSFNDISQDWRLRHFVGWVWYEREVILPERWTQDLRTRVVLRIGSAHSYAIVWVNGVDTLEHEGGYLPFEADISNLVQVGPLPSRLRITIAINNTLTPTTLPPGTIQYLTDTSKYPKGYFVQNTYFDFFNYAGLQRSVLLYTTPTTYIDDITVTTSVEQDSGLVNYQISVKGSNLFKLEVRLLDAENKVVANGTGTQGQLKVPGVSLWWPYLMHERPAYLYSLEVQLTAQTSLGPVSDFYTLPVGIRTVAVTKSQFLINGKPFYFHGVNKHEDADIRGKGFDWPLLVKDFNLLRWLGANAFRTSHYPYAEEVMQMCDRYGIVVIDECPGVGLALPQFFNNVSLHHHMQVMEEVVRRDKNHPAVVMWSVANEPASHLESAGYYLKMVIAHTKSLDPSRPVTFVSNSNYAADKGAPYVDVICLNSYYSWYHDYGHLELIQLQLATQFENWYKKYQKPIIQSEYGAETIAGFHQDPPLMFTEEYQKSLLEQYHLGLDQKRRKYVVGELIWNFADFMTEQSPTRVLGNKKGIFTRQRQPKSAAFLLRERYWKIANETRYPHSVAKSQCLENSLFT

[3] = target: β-glucuronidase (Homo sapiens) (UniProt P08236); conditions: cited from earlier work; remark: listed apart in the source
[4] = target: β-glucuronidase (Homo sapiens) (UniProt P08236); conditions: cited from earlier work; remark: listed apart in the source

Kd [1]: ~1000 µM
Compound: O=P(O)(O)OC[C@H]1OC(O)[C@@H](O)[C@@H](O)[C@@H]1O (stereo partly shown) [mannose 6-phosphate]

Compound: cation-dependent mannose 6-phosphate receptor (from UniProt P11456)
Kd [2]: 0.00028 µM

Compound: cation-dependent mannose 6-phosphate receptor (sCD-MPR) ECD (from UniProt P11456)
Kd [3]: 0.0014 µM

Compound: cation-dependent mannose 6-phosphate receptor (sCD-MPRHis6) ECD (from UniProt P11456)
Kd [4]: 0.0015 µM
